Assay results as given in publication PMC7986998.

Target: human ACE2-Fc (human) (UniProt Q9BYF1)
Assay: ELISA

Chain of human ACE2-Fc (human) (Q9BYF1 18-740): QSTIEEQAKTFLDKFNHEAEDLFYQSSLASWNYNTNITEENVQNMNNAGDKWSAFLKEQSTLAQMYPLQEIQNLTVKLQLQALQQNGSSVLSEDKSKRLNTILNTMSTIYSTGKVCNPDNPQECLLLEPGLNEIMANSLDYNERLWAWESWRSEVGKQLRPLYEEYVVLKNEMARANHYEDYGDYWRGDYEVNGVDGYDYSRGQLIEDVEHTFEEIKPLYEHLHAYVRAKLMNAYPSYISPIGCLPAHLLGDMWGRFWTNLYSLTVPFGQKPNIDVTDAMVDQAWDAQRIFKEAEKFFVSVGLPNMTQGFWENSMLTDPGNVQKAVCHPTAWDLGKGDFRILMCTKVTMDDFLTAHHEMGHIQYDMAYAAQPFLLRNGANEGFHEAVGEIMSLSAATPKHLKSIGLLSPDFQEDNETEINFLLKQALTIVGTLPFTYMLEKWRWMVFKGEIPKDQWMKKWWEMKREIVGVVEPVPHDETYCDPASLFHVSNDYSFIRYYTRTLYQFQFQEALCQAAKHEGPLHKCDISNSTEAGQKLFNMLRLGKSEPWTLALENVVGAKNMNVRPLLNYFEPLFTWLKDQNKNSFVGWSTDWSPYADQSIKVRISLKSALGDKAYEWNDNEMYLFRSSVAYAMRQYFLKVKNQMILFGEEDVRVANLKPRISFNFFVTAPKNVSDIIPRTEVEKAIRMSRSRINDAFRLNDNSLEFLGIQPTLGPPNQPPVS

SARS-CoV S 2P ectodomain trimer (from UniProt P59594 14-1195) (domain or fragment)
EC50: 4.11 nM
